The values below come from patent US20210395394A1.

Sequences and labels used below:
B1: Mutation 1-39 (antibody, mouse IgG2b, kappa, V domains shown)
VH: QVQLQQPGAELVRPGASVKLSCKASGSSFTNYWMNWVKQRPGQGLEWIGMIHPSESETRINQKFKDKATLTVDKSSSTAYMQLSSLTAEDSAVYYCAKSGEFYTSYFDYWGQGTTLTVSS
VL: DIQLTQSPASLSASVGETVTITCRGTGNVHNYLAWYQQKQGKSPQLLVYNARTVADGVPSRFSGSGSGTQYSLKINSLQPEDFGSYYCQYFWSTYTFGGGTKLEIKR
B2: Mutation 1-47 (antibody, mouse IgG2b, kappa, V domains shown)
VH: QVQLQQPGAELVRPGASVKLSCKASGTSFTNYWMNWVKQRPGQGLEWIGMIHPSESETRVNQKFKDKATLTVDKSSSTAYMQLSSLTAEDSAVYYCAKSGDFYTSYFDYWGQGTTLTVSS
VL: DIQLTQSPASLSASVGETVTITCRGSGNLHNYLAWYQQKQGKSPQLLVYNARTLADGVPSRFSGSGSGTQYSLKINSLQPEDFGSYYCQTFWSTYTFGGGTKLEIKR
B3: WT 1-2 (antibody, mouse IgG2b, kappa, V domains shown)
VH: QVQLQQPGAELVRPGASVKLSCKASGYSFTNYFMNWVKQRPGQGLEWIGMINPSDSETRVNQKFKDKATLTVDKSSSTAYMQLSSLTAEDSAVYYCARSGDFYTTYWDYWGQGTTLTVSS
VL: DIQLTQSPASLSASVGETVTITCRGTGNVHNYIAWYQQKQGKSPQLLVYNAKTIADGVPSRFSGSGSGTQYSLKINSLQPEDFGSYYCQYFWSSYTFGGGTKLEIKR
B4: Mutation 1-41 (antibody, mouse IgG2b, kappa, V domains shown)
VH: QVQLQQPGAELVRPGASVKLSCKASGYSFTNYWMNWVKQRPGQGLEWIGMIHPSESETRVNQKFKDKATLTVDKSSSTAYMQLSSLTAEDSAVYYCAKSGEFYTTYFDYWGQGTTLTVSS
VL: DIQLTQSPASLSASVGETVTITCRGTGNIHNYLAWYQQKQGKSPQLLVYNARTLADGVPSRFSGSGSGTQYSLKINSLQPEDFGSYYCQSFWSTYTFGGGTKLEIKR
B5: Mutation 1-53 (antibody, mouse IgG2b, kappa, V domains shown)
VH: QVQLQQPGAELVRPGASVKLSCKASGSSFTNYWMNWVKQRPGQGLEWIGMIHPSESETRVNQKFKDKATLTVDKSSSTAYMQLSSLTAEDSAVYYCARSGDFYTSYFDYWGQGTTLTVSS
VL: DIQLTQSPASLSASVGETVTITCRGTGNIHNYLAWYQQKQGKSPQLLVYNARTIADGVPSRFSGSGSGTQYSLKINSLQPEDFGSYYCQYFWSTYTFGGGTKLEIKR
B6: Mutation 1-45 (antibody, mouse IgG2b, kappa, V domains shown)
VH: QVQLQQPGAELVRPGASVKLSCKASGYSFTNYWMNWVKQRPGQGLEWIGMIHPSESETRINQKFKDKATLTVDKSSSTAYMQLSSLTAEDSAVYYCARSGEFYTYYFDYWGQGTTLTVSS
VL: DIQLTQSPASLSASVGETVTITCRGSGNVHNYLAWYQQKQGKSPQLLVYNARTIADGVPSRFSGSGSGTQYSLKINSLQPEDFGSYYCQSFWSTYTFGGGTKLEIKR
B7: Mutation 1-43 (antibody, mouse IgG2b, kappa, V domains shown)
VH: QVQLQQPGAELVRPGASVKLSCKASGTSFTNYWMNWVKQRPGQGLEWIGMIHPSDSETRLNQKFKDKATLTVDKSSSTAYMQLSSLTAEDSAVYYCARSGDFYTYYFDYWGQGTTLTVSS
VL: DIQLTQSPASLSASVGETVTITCRGSGNIHNYLAWYQQKQGKSPQLLVYNAKTVADGVPSRFSGSGSGTQYSLKINSLQPEDFGSYYCQSFWSTYTFGGGTKLEIKR
B8: Mutation 1-51 (antibody, mouse IgG2b, kappa, V domains shown)
VH: QVQLQQPGAELVRPGASVKLSCKASGSSFTNYWMNWVKQRPGQGLEWIGMIHPSESETRINQKFKDKATLTVDKSSSTAYMQLSSLTAEDSAVYYCAKSGEFYTYYFDYWGQGTTLTVSS
VL: DIQLTQSPASLSASVGETVTITCRGTGNVHNYLAWYQQKQGKSPQLLVYNARTLADGVPSRFSGSGSGTQYSLKINSLQPEDFGSYYCQTFWSTYTFGGGTKLEIKR
B9: WT 1-4 (antibody, mouse IgG2b, kappa, V domains shown)
VH: QVQLQQPGAELVRPGASVKLSCKASGYSFTNYFMNWVKQRPGQGLEWIGMINPSDSETRVNQKFKDKATLTVDKSSSTAYMQLSSLTAEDSAVYYCAKSGDFYTTYWDYWGQGTTLTVSS
VL: DIQLTQSPASLSASVGETVTITCRGSGNVHNYIAWYQQKQGKSPQLLVYNAKTVADGVPSRFSGSGSGTQYSLKINSLQPEDFGSYYCQYFWSSYTFGGGTKLEIKR
B10: Mutation 1-49 (antibody, mouse IgG2b, kappa, V domains shown)
VH: QVQLQQPGAELVRPGASVKLSCKASGSSFTNYWMNWVKQRPGQGLEWIGMIHPSDSETRLNQKFKDKATLTVDKSSSTAYMQLSSLTAEDSAVYYCAKSGDFYTTYFDYWGQGTTLTVSS
VL: DIQLTQSPASLSASVGETVTITCRGTGNLHNYLAWYQQKQGKSPQLLVYNAKTVADGVPSRFSGSGSGTQYSLKINSLQPEDFGSYYCQTFWSTYTFGGGTKLEIKR
B11: WT 1-3 (antibody, mouse IgG2b, kappa, V domains shown)
VH: QVQLQQPGAELVRPGASVKLSCKASGSSFTNYFMNWVKQRPGQGLEWIGMINPSESETRINQKFKDKATLTVDKSSSTAYMQLSSLTAEDSAVYYCARSGEFYTYYWDYWGQGTTLTVSS
VL: DIQLTQSPASLSASVGETVTITCRGTGNLHNYIAWYQQKQGKSPQLLVYNARTLADGVPSRFSGSGSGTQYSLKINSLQPEDFGSYYCQTFWSSYTFGGGTKLEIKR
B12: Mutation 1-48 (antibody, mouse IgG2b, kappa, V domains shown)
VH: QVQLQQPGAELVRPGASVKLSCKASGYSFTNYWMNWVKQRPGQGLEWIGMIHPSDSETRINQKFKDKATLTVDKSSSTAYMQLSSLTAEDSAVYYCAKSGDFYTYYFDYWGQGTTLTVSS
VL: DIQLTQSPASLSASVGETVTITCRGSGNLHNYLAWYQQKQGKSPQLLVYNAKTLADGVPSRFSGSGSGTQYSLKINSLQPEDFGSYYCQYFWSTYTFGGGTKLEIKR
B13: Mutation 1-55 (antibody, mouse IgG2b, kappa, V domains shown)
VH: QVQLQQPGAELVRPGASVKLSCKASGYSFTNYWMNWVKQRPGQGLEWIGMIHPSDSETRLNQKFKDKATLTVDKSSSTAYMQLSSLTAEDSAVYYCARSGDFYTTYFDYWGQGTTLTVSS
VL: DIQLTQSPASLSASVGETVTITCRGSGNIHNYLAWYQQKQGKSPQLLVYNAKTIADGVPSRFSGSGSGTQYSLKINSLQPEDFGSYYCQYFWSTYTFGGGTKLEIKR
B14: Mutation 1-54 (antibody, mouse IgG2b, kappa, V domains shown)
VH: QVQLQQPGAELVRPGASVKLSCKASGTSFTNYWMNWVKQRPGQGLEWIGMIHPSDSETRINQKFKDKATLTVDKSSSTAYMQLSSLTAEDSAVYYCARSGDFYTYYFDYWGQGTTLTVSS
VL: DIQLTQSPASLSASVGETVTITCRGTGNIHNYLAWYQQKQGKSPQLLVYNAKTVADGVPSRFSGSGSGTQYSLKINSLQPEDFGSYYCQSFWSTYTFGGGTKLEIKR
B15: Mutation 1-52 (antibody, mouse IgG2b, kappa, V domains shown)
VH: QVQLQQPGAELVRPGASVKLSCKASGYSFTNYWMNWVKQRPGQGLEWIGMIHPSESETRLNQKFKDKATLTVDKSSSTAYMQLSSLTAEDSAVYYCAKSGEFYTTYFDYWGQGTTLTVSS
VL: DIQLTQSPASLSASVGETVTITCRGSGNIHNYLAWYQQKQGKSPQLLVYNARTVADGVPSRFSGSGSGTQYSLKINSLQPEDFGSYYCQSFWSTYTFGGGTKLEIKR
B16: Mutation 1-42 (antibody, mouse IgG2b, kappa, V domains shown)
VH: QVQLQQPGAELVRPGASVKLSCKASGYSFTNYWMNWVKQRPGQGLEWIGMIHPSDSETRINQKFKDKATLTVDKSSSTAYMQLSSLTAEDSAVYYCARSGDFYTSYFDYWGQGTTLTVSS
VL: DIQLTQSPASLSASVGETVTITCRGTGNIHNYLAWYQQKQGKSPQLLVYNAKTIADGVPSRFSGSGSGTQYSLKINSLQPEDFGSYYCQTFWSTYTFGGGTKLEIKR
B17: Mutation 1-50 (antibody, mouse IgG2b, kappa, V domains shown)
VH: QVQLQQPGAELVRPGASVKLSCKASGTSFTNYWMNWVKQRPGQGLEWIGMIHPSDSETRVNQKFKDKATLTVDKSSSTAYMQLSSLTAEDSAVYYCAKSGEFYTSYFDYWGQGTTLTVSS
VL: DIQLTQSPASLSASVGETVTITCRGSGNVHNYLAWYQQKQGKSPQLLVYNAKTIADGVPSRFSGSGSGTQYSLKINSLQPEDFGSYYCQSFWSTYTFGGGTKLEIKR
B18: Mutation 1-44 (antibody, mouse IgG2b, kappa, V domains shown)
VH: QVQLQQPGAELVRPGASVKLSCKASGSSFTNYWMNWVKQRPGQGLEWIGMIHPSDSETRVNQKFKDKATLTVDKSSSTAYMQLSSLTAEDSAVYYCARSGEFYTSYFDYWGQGTTLTVSS
VL: DIQLTQSPASLSASVGETVTITCRGTGNVHNYLAWYQQKQGKSPQLLVYNAKTLADGVPSRFSGSGSGTQYSLKINSLQPEDFGSYYCQYFWSTYTFGGGTKLEIKR
B19: Mutation 1-40 (antibody, mouse IgG2b, kappa, V domains shown)
VH: QVQLQQPGAELVRPGASVKLSCKASGTSFTNYWMNWVKQRPGQGLEWIGMIHPSESETRLNQKFKDKATLTVDKSSSTAYMQLSSLTAEDSAVYYCAKSGEFYTYYFDYWGQGTTLTVSS
VL: DIQLTQSPASLSASVGETVTITCRGSGNIHNYLAWYQQKQGKSPQLLVYNARTIADGVPSRFSGSGSGTQYSLKINSLQPEDFGSYYCQTFWSTYTFGGGTKLEIKR
B20: WT 1-1 (antibody, mouse IgG2b, kappa, V domains shown)
VH: QVQLQQPGAELVRPGASVKLSCKASGTSFTNYFMNWVKQRPGQGLEWIGMINPSDSETRINQKFKDKATLTVDKSSSTAYMQLSSLTAEDSAVYYCARSGDFYTSYWDYWGQGTTLTVSS
VL: DIQLTQSPASLSASVGETVTITCRGTGNIHNYIAWYQQKQGKSPQLLVYNAKTLADGVPSRFSGSGSGTQYSLKINSLQPEDFGSYYCQTFWSSYTFGGGTKLEIKR
B21: Mutation 1-46 (antibody, mouse IgG2b, kappa, V domains shown)
VH: QVQLQQPGAELVRPGASVKLSCKASGTSFTNYWMNWVKQRPGQGLEWIGMIHPSESETRLNQKFKDKATLTVDKSSSTAYMQLSSLTAEDSAVYYCARSGEFYTTYFDYWGQGTTLTVSS
VL: DIQLTQSPASLSASVGETVTITCRGTGNLHNYLAWYQQKQGKSPQLLVYNARTVADGVPSRFSGSGSGTQYSLKINSLQPEDFGSYYCQYFWSTYTFGGGTKLEIKR

The assay has as its target Pan-species-specific antigen Plasmodium Lactate DeHydrogenase (Pan-PLDH) protein. The assay is described as follows: indirect ELISA at four coating concentrations, KD calculated from half-maximal OD.
Regarding B1, the Kd – broadly, the equilibrium constant for the complex coming apart – is 0.55 nM.
With B2, the equilibrium dissociation constant (Kd) was 0.454 nM.
Regarding B3, the Kd is 0.639 nM.
With B4 the figure was 0.743 nM.
For the molecule B5, the Kd was 0.717 nM.
With B6 the figure was 0.415 nM; with B7, 0.53 nM.
With B8 the figure was 0.526 nM.
In the case of B9, the dissociation constant (Kd) is 0.85 nM.
As to B10, the dissociation constant Kd was 0.342 nM.
Next, B11: 0.485 nM.
Turning to B12, the equilibrium dissociation constant (Kd) is 0.336 nM.
Turning to B13, the Kd was 0.559 nM.
With B14 the figure was 0.633 nM; with B15, 0.659 nM; with B16, 0.545 nM.
With B17 the figure was 0.0879 nM.
Next, B18: 0.318 nM.
On to B19, for which the Kd was 0.439 nM.
In the case of B20, the dissociation constant (Kd) was 0.759 nM.
Next, B21: 0.332 nM.
